2 molecules from patent US10526416B2, “Anti-HER3 antibodies and uses of same” (Yeda Research and Development Co. Ltd., priority 2014, dated 2020) can be followed below.

Test [1] concerns BxPC3 cells. Kind of test: MTT assay on BxPC3 cells in culture. It counts as cell-based, human. Particulars: 3 days. The procedure:
(§1) FIGS. 15A-F show the effects of a mixture of two anti HER3 mAbs, in vivo on BxPC3 cell xenografts and in vitro. (FIGS. 15A-C) CD1-Nude mice were grafted subcutaneously with 5×10^6 BxPC3 cells. Once tumors became palpable (after 13 days), the mice were randomized into group of 8 mice and treated every 3 days for 5 weeks. The control group (CTRL) was injected intra-peritoneally (IP) with 200 μl PBS. The other groups were treated with mAb alone or in combination at a final concentration of 0.2 mg/0.2 ml of PBS per mouse. The mice were weighted once a week and the tumors measured twice a week. An average tumor size of 7-8 mice (+/−SEM) is shown. (FIGS. 15D-F) Proliferation assays using MTT were performed on BxPC-3. 5,000 cells per well were plated the day before and treated for 72 h with the indicated mAb treatment. Decreasing concentrations of the indicated mAb (alone or in combination) were used in medium supplemented with 1% serum and NRG (10 ng/ml).
To determine if the combination of NG33 mAb with another anti-HER3 mAb is more efficient than using NG33 alone, the combination of two mAbs, NG33 and XC252, was tested on several tumor cell lines, which were grafted subcutaneously (gastric: N87, lung: A549, pancreatic: BxPC3, ovarian: OVCAR-5, and head and neck: CAL-27, FIG. 14). This pilot was performed with 3 mice per group. Mice were injected twice a week with the mAb combination or with PBS. The best responder of these in vivo models for solid tumor growth was the BxPC3 xenograft model. […] This experiment was performed on 7 to 8 mice per group. The mice were treated every 3 days with PBS, each mAb alone or a mAb combination, for 5 weeks (0.2 mg/injection). […] In order to reinforce the in vivo data, the cytotoxicity of each mAb alone or in combination with NG33 was tested on BxPC3 cells in culture (FIGS. 15D, 15E and 15F). Decreasing concentrations of mAb were used and a MTT assay was performed following 3 days of treatment. […] On the contrary, XC252 used alone has a […] cytotoxic impact on BxPC3 proliferation leading to 60% inhibition of cell survival at high concentration.
(In general: Tetrazolium assays rely on reduction of a dye to a coloured formazan, in cell work by metabolically active cells.)

The test system of test [2] is BxPC3 xenografts. Kind of test: BxPC3 cell xenografts in CD1-Nude mice. In kind it is in vivo. Particulars: 0.2 mg/injection IP every 3 days for 5 weeks, 7 to 8 mice per group. The procedure:
as §1
All animal studies were approved by the Weizmann Institute's Review Board (IRB). Tumor bearing CD1/nude mice were randomized in groups of five-ten mice and injected subcutaneously in the right flank with cancer cells (3-5×10^6 per mouse depending on the cell line). mAbs were injected intraperitoneally at a total dose of 200 μg per mouse per injection, twice a week, for 5 weeks or until tumors reached the size of 1,500 mm^3. In experiments evaluating the effect of the TKI AZD-9291, Vehicle (Vehicle formulation: HPMC 0.5% (sigma Cat#56340), Tween80 0.1% (Sigma Cat #P8074 in water), Erlotinib at a dose of 50 mg/kg per injection, or AZD9291 at a dose of 1 or 5 mg/kg per injection were injected daily intraperitoneally. In one experiment (FIG. 16), mice were treated daily with Erlotinib at a dose of 50 mg/kg per injection until tumors reached a size of 800 mm^3 and only then were treated as indicated. Tumor volume and body weight were evaluated twice and once per week, respectively. Mice were euthanized when tumor size reached 1,500 mm^3. […] Survival of the tumor bearing mice was recorded and depicted by Kaplan-Meier analysis. […]

Test [3] deals with NRG binding to HER3 (Homo sapiens, UniProt P21860). Particulars: increasing mAb concentrations, 45 min at 4° C., then d2-labeled NRG. The procedure: (FIG. 9A) The indicated mAbs were checked for their capacity to compete with fluorescent dye labeled NRG. […] After washes, the labeled-NRG was added and incubated for 30 min at 4° C. Fluorescence intensity at 670 nm was determined following 3 final washes. (FIG. 9B) The ability of the mAbs to avoid NRG-induced phosphorylation of HER3, AKT and ERK, was studied with N87 cells. After 20 min treatment with the indicated mAbs (10 μg/ml) at 37° C., NRG (20 ng/ml) was added to the cells for 10 min. The cells were then lysed, and equal quantities of protein lysates were run on 9% bisacrylamide gel before immunoblotting with the indicated primary antibodies. (FIG. 9C) The capacity of mAb NG33 to avoid NRG-induced migration was checked with OVCAR-5 cells and the quantification reported in a histogram. […] Signals of triplicates were quantified. **** […] (ANOVA and post hoc tests).
Agent labeling was performed by Cisbio. […] Following 1 h incubation, the plate was washed 4 times with KREBS buffer (146 mM NaCl, 4 mM KCl, 0.5 mM MgCl2, 1 mM CaCl2, 10 mM Hepes, 1 gr/L glucose, and 1 mg/mL albumin), and the fluorescent intensity (excitation: 488 nm, emission: 610 nm) was measured using a fluorescence microplate reader. […] Finally, following two washes with KREBS buffer, the fluorescence intensity was measured at 670 nm (excitation: 620 nm). […]

NRG binding to HER3, sequence (P21860 20-1342): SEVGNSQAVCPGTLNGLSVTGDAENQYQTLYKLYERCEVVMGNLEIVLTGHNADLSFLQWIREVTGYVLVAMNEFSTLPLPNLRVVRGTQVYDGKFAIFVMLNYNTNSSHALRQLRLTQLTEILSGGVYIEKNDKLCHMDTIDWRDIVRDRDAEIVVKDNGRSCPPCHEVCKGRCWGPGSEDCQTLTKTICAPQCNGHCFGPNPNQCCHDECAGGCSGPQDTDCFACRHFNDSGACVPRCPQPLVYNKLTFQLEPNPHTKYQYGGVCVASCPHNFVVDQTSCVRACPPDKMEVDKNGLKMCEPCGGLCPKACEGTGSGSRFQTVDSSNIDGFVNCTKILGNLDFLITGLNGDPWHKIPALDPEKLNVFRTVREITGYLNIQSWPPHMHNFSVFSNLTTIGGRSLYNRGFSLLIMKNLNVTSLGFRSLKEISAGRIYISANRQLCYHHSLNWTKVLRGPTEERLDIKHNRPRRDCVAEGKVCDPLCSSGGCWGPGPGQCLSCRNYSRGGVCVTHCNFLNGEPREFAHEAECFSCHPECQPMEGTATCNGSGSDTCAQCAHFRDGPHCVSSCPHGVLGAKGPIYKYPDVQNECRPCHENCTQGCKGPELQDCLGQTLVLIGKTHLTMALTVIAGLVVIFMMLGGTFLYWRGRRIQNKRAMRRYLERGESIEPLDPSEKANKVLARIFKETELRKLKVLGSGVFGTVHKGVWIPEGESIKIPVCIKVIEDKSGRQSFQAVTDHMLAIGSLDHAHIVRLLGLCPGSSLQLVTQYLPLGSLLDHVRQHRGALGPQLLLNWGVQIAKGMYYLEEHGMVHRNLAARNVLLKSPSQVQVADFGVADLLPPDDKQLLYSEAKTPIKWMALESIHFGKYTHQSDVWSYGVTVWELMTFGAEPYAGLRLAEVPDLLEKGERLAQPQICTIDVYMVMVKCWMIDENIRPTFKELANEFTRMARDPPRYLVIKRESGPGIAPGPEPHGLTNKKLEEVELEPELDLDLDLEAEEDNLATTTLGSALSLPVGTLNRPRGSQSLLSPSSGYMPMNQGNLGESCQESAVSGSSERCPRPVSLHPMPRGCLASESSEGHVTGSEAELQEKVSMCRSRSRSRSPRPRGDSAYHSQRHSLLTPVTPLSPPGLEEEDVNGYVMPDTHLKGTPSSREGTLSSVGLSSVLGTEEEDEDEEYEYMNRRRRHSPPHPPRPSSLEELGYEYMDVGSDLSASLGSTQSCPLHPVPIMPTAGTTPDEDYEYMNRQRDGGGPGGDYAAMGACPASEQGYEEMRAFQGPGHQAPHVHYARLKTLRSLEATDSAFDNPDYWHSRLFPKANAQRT

B1: NG83: anti-HER3 mAb; light chain CDRs SEQ ID NOs: 7-9, heavy chain CDRs 10-12 (antibody, V domains shown)
VH: QIQLVQSGPELKKRGETVKISCKASGYTFTNYGMNWVRQAPGKGLKCMGWINTYAGEPTYADDFKGRFAFSLDSSASTAYLQINNLKNEDMATYFCARGGITGAMDYWGQGTSVTVSS
VL: DVVMTQKTSSLSTSLGDRVTISCRASQDIRNYLNWYQQKPDGTVKLLIYYTSRLHSGVPSRFSGSGSGTDYSLTISDLEQEDIATYFCQQGNTLPWTFGGGTKLAIK
modifications: VH chain of NG83 polypeptide; VL chain of NG83 polypeptide
Consider B1, for which the “effect on BxPC3 proliferation/survival (in words)” value in test [1] is reported as “did not interfere with cell proliferation”. Further, the “effect on BxPC3 xenograft tumor growth” value in test [2] was “no statistically significant ability to decrease tumor growth”. The “effect on NRG binding to HER3” value in test [3] is reported as “did not disturb NRG binding”.

B2: XC252: anti-HER3 mAb generated as described in Chen X, et al. (1996); heavy and light chain SEQ ID NOs: 49 and 53 (antibody, V domains shown)
VH: EVQLQQSGAELVRPGVSVKISCKGSGYTFTDYAMHWVKQSHAKSLEWIGVISTYYGDPRDNQKFKGKATMTVDKSSSTAYMELARLTSEDSAIYYCARGDYDWYAIDYWGQGTSVTVSS
VL: DVVMTQTPLSLPVSLGDQASISCRSSQSIVHSDGNTYLEWYLQKPGQSPKLLIYKVSNRFSGVPDRFSGSGSGTDFTLKISRVEAEDLGVYYCFQGSHVPPTFGGGTKLEIK
modifications: VH chain of XC252 polypeptide; VL chain of XC252 polypeptide
On to B2, for which the “inhibition of cell survival” value in test [1] (high concentration, 1% serum, NRG 10 ng/ml) amounted to 60%. In addition, in test [2], the “effect on BxPC3 xenograft tumor growth” value is recorded as “no statistically significant ability to decrease tumor growth”. For the same molecule, in test [3], the “effect on NRG binding to HER3” value is recorded as “slightly enhanced NRG binding”.
